Reference: patent US8530168B2, “Fusion protein comprising a Caspase domain and a nuclear hormone receptor binding domain and methods and uses thereof” (Helmholtz Zentrum Munich Deutsches Forschungszentrum fuer …, priority 2007, dated 2013)
Entries after “also recorded” stand apart in the source; their conditions may differ.

B1: Casp3-ED4ER(T2): full length murine Caspase-3 fused directly to N-terminal shortened ER(T2) domain, SEQ ID NO: 41 (protein)
chain: MENNKTSVDSKSINNFEVKTIHGSKSVDSGIYLDSSYKMDYPEMGICIIINNKNFHKSTGMSSRSGTDVDAANLRETFMGLKYQVRNKNDLTREDILELMDSVSKEDHSKRSSFVCVILSHGDEGVIYGTNGPVELKKLTSFFRGDYCRSLTGKPKLFIIQACRGTELDCGIETDSGTDEEMACQKIPVEADFLYAYSTAPGYYSWRNSKDGSWFIQSLCSMLKLYAHKLEFMHILTRVNRKVATEFESFSLDSTFHAKKQIPCIVSMLTKELYFYHLESLALSLTADQMVSALLDAEPPILYSEYDPTRPFSEASMMGLLTNLADRELVHMINWAKRVPGFVDLTLHDQVHLLECAWLEILMIGLVWRSMEHPVKLLFAPNLLLDRNQGKCVEGMVEIFDMLLATSSRFRMMNLQGEEFVCLKSIILLNSGVYTFLSSTLKSLEEKDHIHRVLDKITDTLIHLMAKAGLTLQQQHQRLAQLLLILSHIRHMSNKGMEHLYSMKCKNVVPLYDLLLEAADAHRLHAPTSRGGASVEETDQSHLATAGSTSSHSLQKYYITGEAEGFPATA
modifications: fusion gene Casp3-ED4ER(T2)
B2: Casp3-ER(T2): full length murine Caspase-3 fused to ER(T2) ligand binding domain, SEQ ID NO: 37 (protein)
chain: MENNKTSVDSKSINNFEVKTIHGSKSVDSGIYLDSSYKMDYPEMGICIIINNKNFHKSTGMSSRSGTDVDAANLRETFMGLKYQVRNKNDLTREDILELMDSVSKEDHSKRSSFVCVILSHGDEGVIYGTNGPVELKKLTSFFRGDYCRSLTGKPKLFIIQACRGTELDCGIETDSGTDEEMACQKIPVEADFLYAYSTAPGYYSWRNSKDGSWFIQSLCSMLKLYAHKLEFMHILTRVNRKVATEFESFSLDSTFHAKKQIPCIVSMLTKELYFYHLEPSAGDMRAANLWPSPLMIKRSKKNSLALSLTADQMVSALLDAEPPILYSEYDPTRPFSEASMMGLLTNLADRELVHMINWAKRVPGFVDLTLHDQVHLLECAWLEILMIGLVWRSMEHPVKLLFAPNLLLDRNQGKCVEGMVEIFDMLLATSSRFRMMNLQGEEFVCLKSIILLNSGVYTFLSSTLKSLEEKDHIHRVLDKITDTLIHLMAKAGLTLQQQHQRLAQLLLILSHIRHMSNKGMEHLYSMKCKNVVPLYDLLLEAADAHRLHAPTSRGGASVEETDQSHLATAGSTSSHSLQKYYITGEAEGFPATA
modifications: fusion gene Casp3-ER(T2)
B3: Casp9trunc-ER(T2): truncated murine Caspase-9 without CARD domain fused to ER(T2) ligand binding domain, SEQ ID NO: 32 (protein)
chain: MGRQAAKQDPEAVKPLDHLVPVVLGPMGLTAKEQRVVKLDPSQPAVGNLTPVVLGPEELWPARLKPEVLRPETPRPVDIGSGGAHDVCVPGKIRGHADMAYTLDSDPCGHCLIINNVNFCPSSGLGTRTGSNLDRDKLEHRFRWLRFMVEVKNDLTAKKMVTALMEMAHRNHRALDCFVVVILSHGCQASHLQFPGAVYGTDGCSVSIEKIVNIFNGSGCPSLGGKPKLFFIQACGGEQKDHGFEVACTSSQGRTLDSDSEPDAVPYQEGPRPLDQLDAVSSLPTPSDILVSYSTFPGFVSWRDKKSGSWYIETLDGILEQWARSEDLQSLLLRVANAVSAKGTYKQIPGCFNFLRKKLFFKTSVEPSAGDMRAANLWPSPLMIKRSKKNSLALSLTADQMVSALLDAEPPILYSEYDPTRPFSEASMMGLLTNLADRELVHMINWAKRVPGFVDLTLHDQVHLLECAWLEILMIGLVWRSMEHPVKLLFAPNLLLDRNQGKCVEGMVEIFDMLLATSSRFRMMNLQGEEFVCLKSIILLNSGVYTFLSSTLKSLEEKDHIHRVLDKITDTLIHLMAKAGLTLQQQHQRLAQLLLILSHIRHMSNKGMEHLYSMKCKNVVPLYDLLLEAADAHRLHAPTSRGGASVEETDQSHLATAGSTSSHSLQKYYITGEAEGFPATA
modifications: fusion protein Casp9trunc-ER(T2)

Key:
Format in all cases: cell-based, mouse
[1] = tested on: MEF5/N9 cells; assay: Transient cotransfection of ER(T2) fusion expression vectors with β-galactosidase reporter; β-galactosidase activity in lysates; conditions: 10^−8 M 4-OH-tamoxifen, 48 h; for relative β-galactosidase activity in presence of 4-OH-tamoxifen compared to the negative control: relative to Cre-ER(T2) without 4-OH-tamoxifen
Procedure: The transformed mouse embryonic fibroblast cell line MEF5/N9 (Schwenk et al., Nucleic Acids Research, 26(6) 1427-1432 (1998)) was obtained from Michel Aguet (University of Zurich, Switzerland). The cells were grown in DMEM medium (Life Technologies) supplemented with 2 mM […] and 10% fetal calf serum at 37° C., 5% CO2 in humid atmosphere and passaged upon trypsinization. One day before transient transfection 4·10^4 cells were plated into a 24-well plate (Falcon). For the transient transfection of MEF5/N9 cells with plasmids, each well received into 500 μl of medium a total amount of 150 ng or 200 ng supercoiled plasmid DNA complexed before with the FuGene6 transfection reagent (Roche Diagnostics GmbH, Mannheim, Germany) according to the manufacturer's protocol. Each 150 ng or 200 ng DNA preparation (FIG. 2 sample 1 to 11) contained 100 ng of the β-Galactosidase expression vector pCMV-β-gal-pA (pCMVβ, Clontech, FIG. 1G, SEQ ID NO: 56), and 100 ng of the fusion ER(T2) expression vectors to be tested (FIG. 2 sample 3-7, 10-11) and the control plasmids (FIG. 2 sample 1-3), except for the samples with the plasmids pCAG-Casp9full-ER(T2)-bpA (FIG. 2 sample 8) and pCAG-Casp9trunc-ER(T2)-bpA (FIG. 2 sample 9), respectively, that received 50 ng of the test vector. For each sample to be tested four individual wells were transfected. Five hours after the addition of the DNA preparations each well received additional 500 μl of growth medium. The following day, the medium of two wells of each sample was replaced by fresh medium. The other two wells received medium containing 10^−8 M 4-hydroxy-tamoxifen (Sigma). 48 hours after induction with 4-OH-tamoxifen, the cells of each well were lysed with 200 μl lysate reagent supplemented with protease inhibitors (Roche Diagnostics GmbH). The lysates were centrifuged and 50 μl were used to determine the β-galactosidase activities using the β-galactosidase reporter gene assay (Roche Diagnostics GmbH) according to the manufacturer's protocol in a microplate luminometer (Berthold Detection Systems GmbH). The mean value and standard deviation of the samples was calculated from the β-galactosidase RLU values obtained from the two transfected wells of each sample. The relative β-galactosidase activity was obtained by comparison to the negative control (pCAG-Cre-ER(T2)-bpA) without 4-OH-tamoxifen.
To investigate the cell death effect of the different ER(T2) fusion constructs quantitatively, we performed transient cotransfections of the ER(T2) fusion protein expression vectors together with a fixed amount of a reporter plasmid coding for β-galactosidase in MEF5/N9 fibroblast cells. Transfected cells were treated 12 hours after transfection with 4-OH-tamoxifen at a concentration of 10^−8 M. Following 48 hours of 4-OH-tamoxifen induction, the cells from the various samples were lysed and the activity of β-galactosidase in the lysates was determined by a chemiluminescence assay and expressed in “Relative Light Units” (RLU) (FIG. 2). As positive controls for 4-OH-tamoxifen-inducible cell death, we prepared samples transfected with the constructs pCAG-HAFas-ER(T2) or pCAG-MFas-ER(T2) together with the reporter plasmid and treatment with 4-OH-tamoxifen. As negative control for this assay served samples which received the reporter plasmid together with the expression vector pCAG-Cre-ER(T2) and that were treated with 4-OH-tamoxifen.
To determine the relative activity of the tested ER(T2) fusion constructs inducing apoptosis in the presence of 4-OH-tamoxifen, the RLU values of β-galactosidase activity were divided individually for each sample by the RLU value obtained from the sample which received the plasmid pCAG-Cre-ER(T2) but was not treated with 4-OH-tamoxifen (defined as negative control). The relative activity of the tested Caspase- or bax-ER(T2) fusion proteins was then compared to the negative control for 4-OH-tamoxifen-dependent cell death defined as an activity of 1.

[2] = tested on: MEF5/N9 cells; assay: as above; conditions: no 4-OH-tamoxifen; transient transfection 50 or 100 ng vector; relative to Cre-ER(T2) without 4-OH-tamoxifen
[3] = tested on: MEF5/N9 cells; assay: Visible phenotypic changes / viability of stably transfected MEF5/N9 clones on 4-OH-tamoxifen treatment; conditions: 10^−8 M 4-OH-tamoxifen, 24 h
Procedure: (§1) To generate stably transfected MEF5/N9 cells, 2·10^6 cells were coelectroporated with 32 μg ER(T2) fusion plasmid DNA linearised with ScaI and 8 μg pPgk-hygro-pA plasmid DNA linearised with XhoI and plated into two 96-well plates. The cells were grown in DMEM medium (Invitrogen) supplemented with 2 mM Glutamine and 10% fetal calf serum at 37° C., 5% CO2 in humid atmosphere, and passaged upon trypsinization. Two days after transfection the medium was supplemented with 250 U/ml of hygromycin (Calbiochem) for the selection of stable integrants. Upon the growth of resistant colonies these were individually expanded in the presence of hygromycin.
To examine 4-OH-tamoxifen-dependent cell death, 1·10^5 MEF5/N9 cells expressing ER(T2) fusion proteins were plated into each well of a six-well plate. The following day, for each sample the medium in two of four individual wells were replaced with medium supplemented with 10^−8 M 4-hydroxy-tamoxifen. 24 hours after induction with 4-OH-tamoxifen, cells were photographed through a Leica DMI6000B fluorescence microscope with phase contrast either at 10-fold or 20-fold magnification.
Since the responsiveness of the clones, transfected with the same construct, to 4-OH-tamoxifen differed only slightly from each other, only the results obtained from one clone for each construct are shown in the figure.

[4] = tested on: MEF5/N9 cells; assay: MTT cytotoxicity assay of stably transfected MEF5/N9 clones; conditions: 10^−8 M 4-OH-tamoxifen, 48 h
Procedure: as §1
To quantify 4-OH-tamoxifen-inducible cell death, we applied the colorimetric MTT assay (Mossman, J. Immunol. Methods, 65, 55 (1983)) allowing the quantification of cell survival. Cells (4·10^3) were plated on 96-well plates. The assay was carried out in three replicas for each sample treated with and without 4-OH-tamoxifen. After 12 h, medium was replaced either with fresh medium or with medium supplemented with 10^−8 M 4-OH-tamoxifen. Following 48 h of 4-OH-tamoxifen treatment, sterile filtered MTT reagent in PBS (Sigma) was added at the concentration of 0.5 mg/ml. Incubation occurred for 4 hours at 37° C. With ongoing reaction time, dark violet MTT formazan crystals appeared on the bottom of the wells containing living cells. The crystals were dissolved in 150 μl 0.04 N HCl/isopropanol to give a homogeneous blue solution suitable for absorbance measurement at a wavelength of 570 nm on the Synergy™ HT Multi-Detection Microplate Reader (BioTek).

| Molecule | 4-OH-tamoxifen-dependent activity / toxicity in transient transfection (in words) [1] | basal toxicity: relative β-galactosidase activity compared to the negative control in absence of 4-OH-tamoxifen [2] [%] | 4-OH-tamoxifen-dependent cell death, phenotype of stable clones [3] | 4-OH-tamoxifen-dependent cell death, phenotype of stable clones ([3]; listed as ERBax) | cell viability in the presence of 4-OH-tamoxifen (MTT) [4] | 4-OH-tamoxifen-dependent cell death, phenotype of stable clones ([3]; listed as Casp3ER) | relative β-galactosidase activity in presence of 4-OH-tamoxifen compared to the negative control [1] [%] | 4-OH-tamoxifen-dependent cell death, phenotype of stable clones ([3]; listed as Casp9truncER) |
| --- | --- | --- | --- | --- | --- | --- | --- | --- |
| Bax-ER(T2): N-terminal fusion of full length murine Bax to ER(T2) ligand binding domain, SEQ ID NO: 48 | neither the N-terminal nor the C-terminal fusion of Bax to ER(T2) displayed any activity | 100 | – | – | – | – | – | – |
| ER(T2)-Bax: spaceless C-terminal fusion of murine Bax to ER(T2), SEQ ID NO: 55; used as negative control in stable clones | no tamoxifen-dependent activity; also recorded: neither the N-terminal nor the C-terminal fusion of Bax to ER(T2) displayed any activity | 84 | did not respond to 4-OH-tamoxifen | not affected by the treatment with 4-OH-tamoxifen | not affected by treatment with 4-OH-tamoxifen | – | – | – |
| B1 | could not be regulated in presence of 4-OH-tamoxifen | 52 | – | – | – | – | – | – |
| B2 | low compared to the Caspase 8 or Caspase 9 ER(T2) fusion variants | 52 | neither the two Fas-ER(T2) variants (see FIG. 4 H2, I2) nor Casp3-ER(T2) (FIG. 4 E2) were able to induce apoptosis in the presence of 4-OH-tamoxifen | – | not affected by treatment with 4-OH-tamoxifen | not affected by the treatment with 4-OH-tamoxifen | 28 | – |
| B3 | – | 70 | weaker susceptibility to 4-OH-tamoxifen | – | – | – | 22 | substantial cell death |
